Assay results from US11844813 (ST ANNA KINDERKREBSFORSCHUNG, dated 2023).

Tests used:
[1] = molecular target: T1, Human His-tagged RBP4 (residues 19-201), soluble (human, UniProt P02753 19-201); experiment: yeast display, + A1120; mean ± S.D., n=3
[2] = molecular target: T1, Human His-tagged RBP4 (residues …); experiment: yeast surface display, flow cytometry: soluble His-tagged RBP4 titrated on yeast displaying the binder, anti-penta-His detection, with 5 µM A1120
Excerpt: (§1) "a" can be part of a soluble protein (secreted or exogenously added) or of a transmembrane construct and "c" can be part of a signal transducing construct (shown in A and B). Of course, "a" and "c" can be integrated in the constructs vice versa (not shown). There are many more possible arrangements (not shown). […] RBP4-binding was detected with an anti-penta-His antibody and subsequently analyzed by flow cytometry.

[3] = molecular target: T1, Human His-tagged RBP4 (residues …); experiment: yeast surface display, flow cytometry: soluble His-tagged RBP4 titrated on yeast displaying the binder, anti-penta-His detection, with 5 µM A1120; mean of three
Excerpt: as §1

[4] = molecular target: T1, Human His-tagged RBP4 (residues …); experiment: ITC, -A1120; mean ± S.D., n=4
Method: (§2) The samples were centrifuged (17000 g, 10 min, 20° C.) and dialysed against the same buffer (PBS). RBP4 protein solution was applied to the sample cell and the respective RBP4 binding interaction partners were titrated with varying intervals. Different concentrations both for RBP4 and RBP4 binding interaction partners were used. […] Data analysis was performed with the MicroCal PEAQ-ITC analysis software and the resulting data were fitted to a one-set-of-sites binding model. […] The integrated data were fitted to one-set-of-sites binding model to calculate the K_D values in FIG. 18.

[5] = molecular target: T1, Human His-tagged RBP4 (residues …); experiment: ITC, + A1120; mean ± S.D., n=4
Method: as §2

[6] = molecular target: T1, Human His-tagged RBP4 (residues …); experiment: ITC; ratio of the KD without to the KD with A1120
Method: as §2

[7] = molecular target: T1, Human His-tagged RBP4 (residues …); experiment: yeast surface display, flow cytometry: soluble His-tagged RBP4 titrated on yeast displaying the binder, anti-penta-His detection, with 5 µM A1120; mean of three; remark: listed apart in the source
Method: All small molecules were present at a concentration of 5 µM. RBP4-binding was detected with an anti-penta-His antibody and subsequently analyzed by flow cytometry.

[8] = molecular target: T1, Human His-tagged RBP4 (residues …); experiment: SPR, -A1120; mean ± S.D., n=4
Method: (§3) The antigen (RBP4) was coated onto a CM5 chip (GE Healthcare) and incubated with various concentrations of lipocalin-fold binding interaction partner solution in HBS-EP (GE Healthcare), followed by a dissociation phase in HBS-EP. […] Finally, K_d values (dissociation constants) were obtained by steady-state analysis.

[9] = molecular target: T1, Human His-tagged RBP4 (residues …); experiment: SPR, + A1120; mean ± S.D., n=4
Method: as §3

[10] = molecular target: T1, Human His-tagged RBP4 (residues …); experiment: SPR (Biacore T200), single-cycle kinetics, RBP4 immobilised on a CM5 chip, RS3 injected at 6.25-100 nM, with 5 µM A1120; steady-state analysis; one representative experiment of four
Method: (§4) Applied concentrations of RS3 are indicated in the plots. […] Figure 17B: Figure 17C:
as §3

[11] = molecular target: T1, Human His-tagged RBP4 (residues …); experiment: SPR (Biacore T200), single-cycle kinetics, RBP4 immobilised on a CM5 chip, RS3 injected at 937.5-15000 nM, without A1120; steady-state analysis; one representative experiment of four
Method: as §4, §3

B1: RF2, FN3-based lipocalin-fold binding interaction partner, displayed on the surface of yeast (designed binder)
chain: VSDVPRDLEVVAATPTSLLISWYYPNASHAGYYRITYGETGGNSPVQEFTVPFSIRYTIATISGLKPGVDYTITVYAVTDYAYYYRLSEPISINYRTEIDKPSQ
notes: not shown: Yeast-display carrier of the pCTCON2 construct (Aga2p anchor, HA tag, linker, c-myc tag)
Kd [1]: 65 nM | EC50 (read off the curve) [2]: ~40 nM | Kd [3]: 41.8 nM

B2: RF2, FN3-based RBP4 binding interaction partner, soluble protein (designed binder)
chain: VSDVPRDLEVVAATPTSLLISWYYPNASHAGYYRITYGETGGNSPVQEFTVPFSIRYTIATISGLKPGVDYTITVYAVTDYAYYYRLSEPISINYRTEIDKPSQ
notes: Expressed in E. coli as His6-SUMO fusion; Monomeric by SEC
Kd [4]: 4380 nM | Kd [5]: 279 nM | KD,-A1120 / KD,+A1120 [6]: 16

B3: RF1, FN3-based lipocalin-fold binding interaction partner, displayed on the surface of yeast (designed binder)
chain: VSDVPRDLEVVAATPTSLLISWYYPNASHAGYYRVTYGETGGNSPVQEFTVPFSIRYTIATISGLKPGVDHTITVYAVTDYAYYYRSSEPISINYRTEIDKPSQ
notes: as for B1
Kd [3]: 169 nM | EC50 (read off the curve) [7]: ~6 nM

B4: RF3, FN3-based lipocalin-fold binding interaction partner, displayed on the surface of yeast (designed binder)
chain: VSDVPRDLEVVAATPTSLLISWYYPNASHAGYYRITYGETGGNSPVQEFTVPFSIRYTIATISGLKPGVDYTITVYAVTASCQYCSYPISINYRTEIDKPSQ
notes: as for B1
Kd [3]: 67 nM

B5: RS2, rcSso7d-based lipocalin-fold binding interaction partner, displayed on the surface of yeast (designed binder)
chain: ATVKLTYQGEEKQVDISKIKRVARYGQGIYFDYGEGGGAWGYGSVSEKDAPKELLQMLEKQ
notes: not shown: Yeast display carrier of pCTCON2 (Aga2p, HA tag, linker, C-terminal c-myc tag)
EC50 (read off the curve) [2]: ~3 nM | Kd [3]: 2.9 nM

B6: RS4, rcSso7d-based lipocalin-fold binding interaction partner, displayed on the surface of yeast (designed binder)
chain: ATAKFTYQGEEKQVDISKIKRVARYGQGIYFSYDEGGGAYGYGSVSEKDAPKELLQMLEKQ
notes: as for B5
Kd [3]: 47.6 nM

B7: RS5, rcSso7d-based RBP4 binding interaction partner, soluble protein (designed binder)
chain: ATVKFTYQGEEKQVDISKIKRVARYGQGIYFDYGEGGGAWGYGSVSEEDAPKELLQMLEKQ
notes: as for B2
Kd [4]: 3780 nM | Kd [8]: 11000 nM | Kd [5]: 17 nM | Kd [9]: 38 nM | KD,-A1120 / KD,+A1120 [6]: 222

B8: RS5, rcSso7d-based lipocalin-fold binding interaction partner, displayed on the surface of yeast (designed binder)
chain: ATVKFTYQGEEKQVDISKIKRVARYGQGIYFDYGEGGGAWGYGSVSEEDAPKELLQMLEKQ
notes: as for B1
Kd [1]: 80 nM | Kd [3]: 69.5 nM

B9: RS1, rcSso7d-based lipocalin-fold binding interaction partner, displayed on the surface of yeast (designed binder)
chain: ATVKFTYQGEEEQVDISKIKKVARYGQNIYFSYDEGGGAWDYGGVSEKDAPKELLQMLEKQ
notes: as for B5
EC50 (read off the curve) [2]: 1 to 2 nM | Kd [3]: 1.5 nM

B10: RS3, rcSso7d-based lipocalin-fold binding interaction partner, displayed on the surface of yeast (designed binder)
chain: ATVKLTYQGEEKQVDISKIKRVARYGQNIYFSYDEGGGAYDYGAVSEKDAPKELLQMLEKQ
notes: as for B5
Kd [1]: 13 nM | EC50 (read off the curve) [2]: ~10 nM | Kd [3]: 11.5 nM | EC50 (read off the curve) [7]: ~20 nM

B11: RS3, rcSso7d-based RBP4 binding interaction partner, soluble protein (designed binder)
chain: ATVKLTYQGEEKQVDISKIKRVARYGQNIYFSYDEGGGAYDYGAVSEKDAPKELLQMLEKQ
notes: as for B2
Kd [4]: 2690 nM | Kd [8]: 4950 nM | Kd [5]: 7 nM | Kd [9]: 9 nM | KD,-A1120 / KD,+A1120 [6]: 384 | Kd [10]: 11 nM | Kd [11]: 6130 nM
